The record followed here is patent US20230302054A1.

The target of the experiment is CD19 antigen on NALM-6 tumor cells (pre-B cell leukemia) (human) (UniProt P15391). Description: cell-based or functional assay.
Chain of CD19 antigen on NALM-6 tumor cells (pre-B cell leukemia) (human) (P15391 20-556): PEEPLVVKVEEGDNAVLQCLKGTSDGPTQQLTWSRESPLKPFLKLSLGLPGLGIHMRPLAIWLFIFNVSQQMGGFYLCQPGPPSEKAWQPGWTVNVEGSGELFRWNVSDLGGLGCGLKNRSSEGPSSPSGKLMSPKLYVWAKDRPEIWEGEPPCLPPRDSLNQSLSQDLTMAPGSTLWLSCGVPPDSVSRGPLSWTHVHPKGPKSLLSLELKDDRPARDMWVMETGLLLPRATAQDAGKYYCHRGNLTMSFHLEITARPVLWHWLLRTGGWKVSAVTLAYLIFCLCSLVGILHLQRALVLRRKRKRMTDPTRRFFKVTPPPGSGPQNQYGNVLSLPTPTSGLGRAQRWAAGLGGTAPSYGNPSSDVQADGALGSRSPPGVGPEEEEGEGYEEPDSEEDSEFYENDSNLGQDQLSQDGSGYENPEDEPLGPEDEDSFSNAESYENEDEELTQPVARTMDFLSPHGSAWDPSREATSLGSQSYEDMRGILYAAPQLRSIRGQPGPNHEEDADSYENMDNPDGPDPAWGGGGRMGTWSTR

For the substance “Anti-hCD19-CD3 bispecific T cell engager (BiTE) (InvivoGen, #bimab-hcd19cd3) (bispecific antibody)”, the BiTE-mediated NALM-6 tumor killing (luciferase-based readout, Bcl-xL-transfected CD8+ T cells as effectors) was > 95%.
